The values that follow are results of earlier work, collected in publication PMC7431755, “Automated high-content imaging for cellular uptake, from the Schmuck cation to the latest cyclic oligochalcogenides” (Beilstein Journal of Organic Chemistry, 2020).

Like-named read-outs stand apart in the source and are kept apart here.

The subject of this data set is HGM cells. Here is the method: The CP50 value of 7.3 ± 0.5 µM obtained for 25 outperformed the CP50 value of 14.9 ± 0.5 μM of the previously reported cell-penetrating streptavidin, in which four asparagusic acids are covalently bound to the protein through irreversible triazole linkages. The CP50 value of 7.3 ± 0.5 µM of 25 was not far above the CP50 value of 3.1 ± 0.5 µM of HIV Tat, the original CPP [55]. As the uptake efficiency generally decreases with the size, this similarity is particularly impressive, considering that the COC carrying a 52 kDa protein is compared to a small undecapeptide.

As for “cell-penetrating streptavidin: previously reported streptavidin with four asparagusic acids covalently bound through irreversible triazole linkages”, the CP50 is 14.9 ± 0.5 µM.

For the substance “HIV Tat: the original CPP, a small undecapeptide”, the CP50 (CAPA) is recorded as 3.1 ± 0.5 µM.
